Assay results published in article PMC10937788 (Plant Molecular Biology, 2024).

Key:
SyArgG = target: T1, SyArgG (Synechocystis sp. PCC 6803, UniProt P77973); assay: coupled NADH oxidation assay (myokinase, pyruvate kinase, lactate dehydrogenase), […] nm; format: biochemical; conditions: read-out: % residual activity at 5 mM
T1 construct: gene argG; synthetic ORF in pGEX-6P-1 (BamHI-XhoI); GST-tagged, tag kept (eluted with glutathione, no cleavage described); expressed in E. coli BL21(DE3)
T1 sequence (P77973 1-400): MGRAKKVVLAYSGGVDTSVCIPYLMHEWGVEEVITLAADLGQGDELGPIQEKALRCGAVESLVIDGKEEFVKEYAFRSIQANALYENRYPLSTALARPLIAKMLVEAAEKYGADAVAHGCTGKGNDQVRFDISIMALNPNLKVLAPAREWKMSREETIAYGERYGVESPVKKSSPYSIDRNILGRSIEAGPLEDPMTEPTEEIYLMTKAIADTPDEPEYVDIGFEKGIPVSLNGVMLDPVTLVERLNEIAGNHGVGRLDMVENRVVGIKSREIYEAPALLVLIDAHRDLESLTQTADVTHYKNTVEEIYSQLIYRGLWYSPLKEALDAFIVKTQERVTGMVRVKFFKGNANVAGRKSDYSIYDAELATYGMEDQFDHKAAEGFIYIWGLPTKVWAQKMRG

purified protein [1] = substrate: Nc1ncnc2c1ncn2[C@@H]1O[C@H](COP(=O)(O)OP(=O)(O)OP(=O)(O)O)[C@@H](O)[C@H]1O; assay: purified protein; format: biochemical, Synechocystis sp. PCC 6803; conditions: 38 °C, pH 9.0 Tris-HCl, 5 mM MgCl2, 2 mM KCl, co-substrates 7.5 mM citrulline, 7.5 mM aspartate
purified protein [2] = substrate: NC(=O)NCCC[C@H](N)C(=O)O; assay: purified protein; format: biochemical, Synechocystis sp. PCC 6803; conditions: 38 °C, pH 9.0 Tris-HCl, 5 mM MgCl2, 2 mM KCl, co-substrates 7.5 mM aspartate, 1 mM ATP
purified protein [3] = substrate: N[C@@H](CC(=O)O)C(=O)O; assay: purified protein; conditions: 38 °C, pH 9.0 Tris-HCl, 5 mM MgCl2, 2 mM KCl, co-substrates 7.5 mM citrulline, 1 mM ATP

N=C(N)NCCC[C@H](N)C(=O)O [arginine]
remaining activity at 5000 µM (SyArgG): 18.4%

NCCCC[C@H](N)C(=O)O [lysin]
remaining activity at 5000 µM (SyArgG): 78.1%

NCCC[C@H](N)C(=O)O [ornithine]
remaining activity at 5000 µM (SyArgG): 80.1%

O=C(O)CCC(=O)O [succinate]
remaining activity at 5000 µM (SyArgG): 92.1%

B1: SyArgG (Synechocystis sp. PCC 6803 substr. Kazusa) (protein)
chain: T1 sequence (P77973 1-400)
notes: synthetic ORF in pGEX-6P-1 (BamHI-XhoI); GST-tagged, tag kept (eluted with glutathione, no cleavage described); expressed in E. coli BL21(DE3)
Km (purified protein [1]): 260 ± 10 µM
kcat (purified protein [1]): 0.7 ± 0.002 s⁻¹
kcat/Km (purified protein [1]): 2750 ± 120 M⁻¹ s⁻¹
Km (purified protein [2]): 350 ± 10 µM
kcat (purified protein [2]): 0.69 ± 0.01 s⁻¹
kcat/Km (purified protein [2]): 1970 ± 50 M⁻¹ s⁻¹
Km (purified protein [3]): 360 ± 40 µM
kcat (purified protein [3]): 0.77 s⁻¹
kcat/Km (purified protein [3]): 2160 M⁻¹ s⁻¹
